Experimental data published in patent US9539315B2, “Methods, agents and peptides for inhibiting matrix metalloproteinase-2 signaling” (New York University, priority 2011, dated 2017).

Assays:
OX40L = OX40L expression on DCs (staining); format: cell-based, human; details: DCs exposed for 2 days, stained for OX40L
Protocol: A) DCs were exposed to MMP-2 […] or zymosan […], a known activator of NF-κB that acts via TLR2, for the indicated time. Cytosolic and nuclear fractions were isolated and p50 contents were measured by ELISA. […] C) OX40L over-expression on DCs induced by MMP-2 is inhibited by an inhibitor of NEMO, the NEMO binding domain (NBD) peptide, but not by the corresponding negative control, a NBD mutant.
A) DCs were exposed to various TLR agonists for 2 days before cells were stained for OX40L. […] B) TLR2-transfected and engineered HEK cells were incubated with MMP-2 (5 mg/ml) or various controls. All conditions were also tested in the presence of a blocking antibody for TLR2. TNFα was used to activate NF-κB in a TLR-independent manner. Twenty hours later, NF-κB activation was measured.
Antibody to OX40L (11C3.1) was from Biolegend. Blocking antibodies to TLR-2 and TLR-6 were from Invivogen. Antibodies to GATA-3, IL-4 (8D4-8), IL-5 (JES1-39D10), IL-13 (JES10-5A2), TNFα (MAb11), IFNγ (25723.11), perforin (δG9), GranzymeB (GB11), CD40 (5C3), CD80 (L307.4), CD83 (HB15e), CD86 (IT2.2), HLA-DR (TU36), fluorescein isothiocyanate-conjugated antibodies to CD45RA (HI100) and CD45RO (UCHL1), and antibody to CD4 (RPA-T4) were purchased from BD Biosciences Pharmingen. Alexa fluor 488-conjugated antibody to IL-17 (eBio64DEC17), phycoerythrine-conjugated antibody to T-bet (4B10).
PBMCs were purified from healthy-(HD) or cord blood- (CB) donors and plated at 40×10^6 cells/10 mL/dish in complete IMDM with 5% PHS. Cells were allowed to adhere for 2 h at 37° C. Non-adherent cells were removed. The monocyte-enriched fraction was supplemented with 100 UI/mL rhGMCSF and 300 UI/mL rhIL-4 (R&D Systems) on days 0, 2 and 4. Immature DCs were harvested on day 5 and matured using poly(I:C) at 5 μg/mL/10^6 DCs (Amersham). Secretion of IL-12p70, TNFα, IL-1β, IL-6, IL-8 and IL-10 was assessed on both immature and mature DCs using the Human Inflammatory Cytokine Cytometric Bead Array (BD Pharmingen).

TLR2/MyD88 complex = molecular target: T1, TLR2/MyD88 complex (Homo sapiens, UniProt O60603); assay: Co-immunoprecipitation of MMP-2 and TLR2 from moDCs or TLR2-transfected HEK cells; format: binding; details: n=3
T1 construct: endogenous in cells; host or cells: human monocyte-derived dendritic cells (moDCs); alternatively TLR2-transfected HEK cells
T1 sequence (O60603 21-784): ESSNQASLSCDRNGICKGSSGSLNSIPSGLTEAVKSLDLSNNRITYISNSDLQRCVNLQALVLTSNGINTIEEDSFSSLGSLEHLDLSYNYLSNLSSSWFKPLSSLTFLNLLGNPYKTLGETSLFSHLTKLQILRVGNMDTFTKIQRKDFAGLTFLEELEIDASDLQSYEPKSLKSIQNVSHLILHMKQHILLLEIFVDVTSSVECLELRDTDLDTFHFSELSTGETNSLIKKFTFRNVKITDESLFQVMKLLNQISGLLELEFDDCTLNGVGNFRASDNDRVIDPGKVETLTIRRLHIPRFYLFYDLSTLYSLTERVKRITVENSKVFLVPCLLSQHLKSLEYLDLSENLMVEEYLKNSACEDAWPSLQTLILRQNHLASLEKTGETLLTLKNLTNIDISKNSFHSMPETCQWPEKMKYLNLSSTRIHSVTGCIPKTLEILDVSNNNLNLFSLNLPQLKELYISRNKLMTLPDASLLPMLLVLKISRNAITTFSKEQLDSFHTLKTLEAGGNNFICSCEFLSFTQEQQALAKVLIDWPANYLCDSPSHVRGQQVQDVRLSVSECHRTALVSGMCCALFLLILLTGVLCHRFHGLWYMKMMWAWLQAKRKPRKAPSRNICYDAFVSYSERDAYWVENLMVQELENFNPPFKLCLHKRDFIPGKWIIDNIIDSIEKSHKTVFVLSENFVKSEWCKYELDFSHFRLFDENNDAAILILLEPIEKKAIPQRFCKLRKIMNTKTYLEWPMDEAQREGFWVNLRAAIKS
T1 sequence (Q99836 whole entry partner): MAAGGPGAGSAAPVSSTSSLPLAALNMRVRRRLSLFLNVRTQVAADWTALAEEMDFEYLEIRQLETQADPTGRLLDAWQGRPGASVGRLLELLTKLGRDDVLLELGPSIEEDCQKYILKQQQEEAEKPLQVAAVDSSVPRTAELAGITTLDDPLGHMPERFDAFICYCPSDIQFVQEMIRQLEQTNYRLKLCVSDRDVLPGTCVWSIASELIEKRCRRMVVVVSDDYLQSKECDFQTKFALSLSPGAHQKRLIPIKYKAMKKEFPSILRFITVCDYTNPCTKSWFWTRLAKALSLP
Protocol: 10^6 moDCs/lane or TLR2-transfected HEK cells were incubated for 20 min with or without 5 μg/ml MMP-2 or MMP-9 before being lysed. TLR2 A) and MMP-2 B) were immunoprecipitated using specific antibodies and protein G-agarose. Western blots for MMP-2 (≈70 kD), TLR2 (≈85 kD) and MyD88 (≈35 kD) were then performed. C and D) depict band intensities (mean of 3 independent experiments±s.d.), which are represented as a percentage of the band intensity corresponding to untreated cells. Two-tailed Student's t-tests were used to compare MMP-2- to MMP-9-treated cells. p values≦0.05 (*) were considered statistically significant.
To assess whether MMP-2 directly interacts with TLR2, moDCs and TLR2-transfected HEK cells were utlized. […] Similarly, TLR2 and MyD88 immunoprecipitated (n=3; p<0.05 compared to MMP-9-treated cells) with MMP-2 when moDCs were pre-treated with MMP-2 (FIG. 8B,D).

B1: matrix metalloproteinase-2 (protein)
chain: YNFFPRKPKWDKNQITYRIIGYTPDLDPETVDDAFARAFQVWSDVTPLRFSRIHDGEADIMINFGRWEHGDGYPFDGKDGLLAHAFAPGTGVGGDSHFDDDELWTLGEGQVVRVKYGNADGEYCKFPFLFNGKEYNSCTDTGRSDGFLWCSTTYNFEKDGKYGFCPHEALFTMGGNAEGQPCKFPFRFQGTSYDSCTTEGRTDGYRWCGTTEDYDRDKKYGFCPETAMSTVGGNSEGAPCVFPFTFLGNKYESCTSAGRSDGKMWCATTANYDDDRKWGFCPDQGYSLFLVAAHEFGHAMGLEHSQDPGALMAPIYTYTKNFRLSQDDIKGIQELYGASPDIDLGTGPTPTLGPVTPEICKQDIVFDGIAQIRGEIFFFKDRFIWRTVTPRDKPMGPLLVATFWPELPEKIDAVYEAPQEEKAVFFAGNEYWIYSASTLERGYPKPLTSLGLPPDVQRVDAAFNWSKNKKTYIFAGDKFWRYNEVKKKMDPGFPKLIADAWNAIPDNLDAVVDLQGGGHSYFFKGAYYLKLENQSLKSVKFGSIKSDWLGC
B1 was tested, and the “OX40L expression on DCs” value (OX40L) was “induce OX40L expression”, the “MMP-2 and MyD88 immunoprecipitated with TLR2” value (TLR2/MyD88 complex; cells pre-treated 20 min with 5 μg/ml MMP-2 (active or inactive) or MMP-9) was “immunoprecipitated” and the “TLR2 and MyD88 immunoprecipitated with MMP-2” value (TLR2/MyD88 complex; moDCs pre-treated with MMP-2) was “immunoprecipitated”.
